Data on 64 substances can be found in US20200339657A1, “PEPTIDES AND COMBINATION THEREOF FOR USE IN THE IMMUNOTHERAPY AGAINST CANCERS” (Immatics Biotechnologies GmbH, priority 2017, published 2020).

For one assay, the system named is CD8+ T cells. Put plainly: In vitro immunogenicity: T-cell priming with aAPCs loaded with peptide/MHC and anti-CD28, multimer readout. In kind it is cell-based, human. Conditions: HLA A*24.
“138 (KYLSIPTVF; listed as Homo sapiens) [compound 138]”: the “Wells positive [%]” value is listed as ““+” (<20% = +)”.

The assay is the same for the next values; noted with them: HLA B*07.
As for “144 (IPEPSAQQL; listed as Homo sapiens) [compound 144]”, the “Wells positive [%]” value is reported as ““+” (<20% = +)”.
Consider “172 (KPAHYPLIAL; listed as Homo sapiens) [compound 172]”, for which the “Wells positive [%]” value is ““+++” (50%-69% = +++)”.
Turning to “170 (SPMWHVQQL; listed as Homo sapiens) [compound 170]”, the “Wells positive [%]” value is on record as ““++++” (>= 70% = ++++)”.
Take “255 (LPDGSRVEL; listed as Homo sapiens) [compound 255]”: the “Wells positive [%]” value is on record as ““++++” (>= 70% = ++++)”.
In the case of “148 (VPDGVSKVL; listed as Homo sapiens) [compound 148]”, the “Wells positive [%]” value is on record as ““+++” (50%-69% = +++)”.
On the same count and under the same terms, the same measure for “155 (FPYPYAERL; listed as Homo sapiens) [compound 155]”: ““+++” (50%-69% = +++)”; for “146 (SPGDKRLAA; listed as Homo sapiens) [compound 146]”: ““++” (20%-49% = ++)”.
The same measure, in the same setting: the same measure for “164 (ISTPSEVSTPL; listed as Homo sapiens) [compound 164]”: ““+” (<20% = +)”.
Take “156 (HPQVVILSL; listed as Homo sapiens) [compound 156]”: the “Wells positive [%]” value is recorded as ““++” (20%-49% = ++)”.

The target of another assay is HLA-A*24:02 (Homo sapiens, UniProt P04439, D101N/D140Y/D185E/E176V/E190D/F33S/G103R/G107R/I119L/I121M/I306V/K335N/L105A/L180Q/L300P/N151K/N90K/Q86E/Q94H/R106L/R138H/R89G/T104I/T345S/V100E/W191G/Y123F). Kind of assay: MHC binding assay (UV-ligand exchange, β2m ELISA).
Conditions: not given
On to “DYIPYVFKL (listed as Homo sapiens) [SEQ ID NO: 268]”, for which the “bind to HLA-A*24” value was “binds to HLA-A*24”.

Staying with this assay, now noted: peptide exchange yield, binding to HLA-A*24:02.
As for “133 (SFDSNLLSF; listed as Homo sapiens) [compound 133]”, the Peptide exchange result is recorded as ““+” (>10% = +)”.
Still for that read-out and setting: the same measure for “137 (KYLSLSNSF; listed as Homo sapiens) [compound 137]”: ““++++” (>75% = ++++)”; for “115 (YFEEAANFL; listed as Homo sapiens) [compound 115]”: ““++” (>20% = ++)”; for “126 (TFQDKTLNF; listed as Homo sapiens) [compound 126]”: ““+++” (>50 = +++)”.
Same read-out and setting: the value for “117 (NFLPPIIARF; listed as Homo sapiens) [compound 117]” was ““++++” (>75% = ++++)”.
The same measure, in the same setting: the value for “141 (KYLSIPAVFF; listed as Homo sapiens) [compound 141]” was ““++++” (>75% = ++++)”; that for “118 (TYISKTIAL; listed as Homo sapiens) [compound 118]” was ““+++” (>50 = +++)”; that for “136 (EYNNIQHLF; listed as Homo sapiens) [compound 136]” was ““+++” (>50 = +++)”.
For the substance “134 (TYLTGRQF; listed as Homo sapiens) [compound 134]”, the Peptide exchange entry was ““++” (>20% = ++)”.
The same measure, in the same setting: the same measure for “129 (VFLNQIYTQL; listed as Homo sapiens) [compound 129]”: ““++” (>20% = ++)”; for “138 (KYLSIPTVF; listed as Homo sapiens) [compound 138]”: ““++++” (>75% = ++++)”.
With “125 (IYGPKYIHPSF; listed as Homo sapiens) [compound 125]”, the Peptide exchange result was ““++++” (>75% = ++++)”.
Take “122 (KLYGMPTDFGF; listed as Homo sapiens) [compound 122]”: the Peptide exchange result is ““++” (>20% = ++)”.
On the same count and under the same terms, the same measure for “121 (SYIEKVRFL; listed as Homo sapiens) [compound 121]”: ““+++” (>50 = +++)”; for “113 (VWAKILSAF; listed as Homo sapiens) [compound 113]”: ““+++” (>50 = +++)”.
As for “128 (SYTKVEARL; listed as Homo sapiens) [compound 128]”, the Peptide exchange result was ““+++” (>50 = +++)”.
For the substance “130 (VYGDGHYLTF; listed as Homo sapiens) [compound 130]”, the Peptide exchange result was ““+++” (>50 = +++)”.
“135 (VIAPIISNF; listed as Homo sapiens) [compound 135]”: the Peptide exchange result was ““+++” (>50 = +++)”.
On the same count and under the same terms, the value for “140 (KYLSIPAVF; listed as Homo sapiens) [compound 140]” was ““++++” (>75% = ++++)”; that for “123 (RQYLAINQI; listed as Homo sapiens) [compound 123]” was ““+” (>10% = +)”; that for “116 (LVLDYSKDYNHW; listed as Homo sapiens) [compound 116]” was ““+” (>10% = +)”.
On the same count and under the same terms, the same measure for “114 (KFLDSNIKF; listed as Homo sapiens) [compound 114]”: ““+++” (>50 = +++)”.
Still for that read-out and setting: the same measure for “139 (PYASLASELF; listed as Homo sapiens) [compound 139]”: ““++++” (>75% = ++++)”; for “120 (MYAKEFDLL; listed as Homo sapiens) [compound 120]”: ““+++” (>50 = +++)”; for “127 (IFINLSPEF; listed as Homo sapiens) [compound 127]”: ““++++” (>75% = ++++)”.

The target in a further assay is HLA-A*02:01 (Homo sapiens, UniProt P04439, D140Y/D185E/D98H/E176V/E277Q/G131W/G231S/I119V/I121R/I166T/I218V/L300P/L318F/N151K/N90K/P208A/P217A/Q86G/Q94H/R138H/R169H/T345S). Kind of assay: MHC binding assay (UV-ligand exchange, β2m ELISA). Conditions: peptide exchange yield, binding to HLA-A*02:01.
In the case of “61 (RLFGLFLNNV; listed as Homo sapiens) [compound 61]”, the Peptide exchange entry is ““++++” (>75% = ++++)”.
As to “40 (KIDDIWNLEV; listed as Homo sapiens) [compound 40]”, the Peptide exchange result is on record as ““+++” (>50 = +++)”.
With “45 (KLLDEVTYL; listed as Homo sapiens) [compound 45]”, the Peptide exchange entry is ““+++” (>50 = +++)”.
The same measure, in the same setting: the value for “47 (YQDSWFQQL; listed as Homo sapiens) [compound 47]” was ““+++” (>50 = +++)”; that for “52 (YVSSGEMMV; listed as Homo sapiens) [compound 52]” was ““+++” (>50 = +++)”; that for “46 (VLITGLPLI; listed as Homo sapiens) [compound 46]” was ““++++” (>75% = ++++)”.
On to “44 (SQTGFVVLV; listed as Homo sapiens) [compound 44]”, for which the Peptide exchange entry is on record as ““++” (>20% = ++)”.
Consider “251 (RLASRPLLL; listed as Homo sapiens) [compound 251]”, for which the Peptide exchange entry is listed as ““+++” (>50 = +++)”.
Still for that read-out and setting: the value for “59 (KLHEIYIQA; listed as Homo sapiens) [compound 59]” was ““++++” (>75% = ++++)”; that for “54 (YLPPTDPRMSV; listed as Homo sapiens) [compound 54]” was ““++++” (>75% = ++++)”.
As for “39 (YLLPSVVLL; listed as Homo sapiens) [compound 39]”, the Peptide exchange result is on record as ““++++” (>75% = ++++)”.
Still for that read-out and setting: the same measure for “55 (RLWQIQHHL; listed as Homo sapiens) [compound 55]”: ““+++” (>50 = +++)”.
Still for that read-out and setting: the same measure for “51 (ALAAELNQL; listed as Homo sapiens) [compound 51]”: ““+++” (>50 = +++)”.

The target in the next assay is HLA-B*07:02 (Homo sapiens, UniProt P01889). Put plainly: MHC binding assay (UV-ligand exchange, β2m ELISA). Particulars: peptide exchange yield, binding to HLA-B*07:02. A general note: An ELISA detects its analyte on a solid surface through an enzyme-linked reagent.
On to “144 (IPEPSAQQL; listed as Homo sapiens) [compound 144]”, for which the Peptide exchange result is ““++” (>20% = ++)”.
“172 (KPAHYPLIAL; listed as Homo sapiens) [compound 172]”: the Peptide exchange result is reported as ““+++” (>50 = +++)”.
On the same count and under the same terms, the value for “170 (SPMWHVQQL; listed as Homo sapiens) [compound 170]” was ““+++” (>50 = +++)”; that for “255 (LPDGSRVEL; listed as Homo sapiens) [compound 255]” was ““++” (>20% = ++)”; that for “150 (KPSSKALGTSL; listed as Homo sapiens) [compound 150]” was ““+++” (>50 = +++)”.
On to “259 (RPAVGHSGL; listed as Homo sapiens) [compound 259]”, for which the Peptide exchange entry was ““++” (>20% = ++)”.
“157 (SPSPGKDPTL; listed as Homo sapiens) [compound 157]”: the Peptide exchange result is given as ““++” (>20% = ++)”.
On the same count and under the same terms, the value for “147 (SPIKVPLLL; listed as Homo sapiens) [compound 147]” was ““+++” (>50 = +++)”.
The same measure, in the same setting: the same measure for “148 (VPDGVSKVL; listed as Homo sapiens) [compound 148]”: ““++” (>20% = ++)”; for “145 (RVPSYTLIL; listed as Homo sapiens) [compound 145]”: ““+++” (>50 = +++)”; for “173 (MVPSAGQLALF; listed as Homo sapiens) [compound 173]”: ““++” (>20% = ++)”.
On the same count and under the same terms, the value for “160 (RPAPADSAL; listed as Homo sapiens) [compound 160]” was ““+++” (>50 = +++)”; that for “167 (YPSEVEHMF; listed as Homo sapiens) [compound 167]” was ““++” (>20% = ++)”; that for “155 (FPYPYAERL; listed as Homo sapiens) [compound 155]” was ““++” (>20% = ++)”.
For “146 (SPGDKRLAA; listed as Homo sapiens) [compound 146]”, the Peptide exchange entry is reported as ““+++” (>50 = +++)”.
Regarding “161 (NPYEGRVEV; listed as Homo sapiens) [compound 161]”, the Peptide exchange result is recorded as ““++” (>20% = ++)”.
Same read-out and setting: the value for “257 (SPLRGGSSL; listed as Homo sapiens) [compound 257]” was ““++” (>20% = ++)”.
Still for that read-out and setting: the same measure for “175 (HPIETLVDIF; listed as Homo sapiens) [compound 175]”: ““++” (>20% = ++)”; for “143 (FELPTGAGLQL; listed as Homo sapiens) [compound 143]”: ““++” (>20% = ++)”.
In the case of “159 (FPAHPSLLL; listed as Homo sapiens) [compound 159]”, the Peptide exchange entry is ““++” (>20% = ++)”.
As for “164 (ISTPSEVSTPL; listed as Homo sapiens) [compound 164]”, the Peptide exchange entry was ““++” (>20% = ++)”.
Turning to “158 (VPERGEPEL; listed as Homo sapiens) [compound 158]”, the Peptide exchange result is reported as ““++” (>20% = ++)”.
Same read-out and setting: the value for “258 (APSGTRVVQVL; listed as Homo sapiens) [compound 258]” was ““++” (>20% = ++)”; that for “166 (HDPDVGSNSL; listed as Homo sapiens) [compound 166]” was ““++” (>20% = ++)”; that for “156 (HPQVVILSL; listed as Homo sapiens) [compound 156]” was ““+++” (>50 = +++)”.
